{"source": "the RNAGym collection of RNA variant scans (doi:10.1093/molbev/msab373)", "parents": {"B1": {"name": "Azoarcus group I ribozyme (parent)", "chain": "GUGCCUUGCGCCGGGAAACCACGCAAGGGAUGGUGUCAAAUUCGGCGAAACCUAAGCGCCCGCCCGGGCGUAUGGCAACGCCGAGCCAAGCUUCGGCGCCUGCGCCGAUGAAGGUGUAGAGACUAGACGGCACCCACCUAAGGCAAACGCUAUGGUGAAGGCAUAGUCCAGGGAGUGGCGAAAGUCACACAAACCGG"}}, "data": [{"variants_of": "B1", "assay": "reverse-splicing fitness (ratio to wild type); higher = more active; in vitro selection; Mg2+ level not given", "how_it_was_run": "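An in vitro group I ribozyme library with randomized positions was T7-transcribed and gel-purified. In triplicate, 10 pmol RNA in EPPS pH 7.5 was reacted with 50 pmoles of a 30-nt RNA substrate for 1 h at 37 °C across several added MgCl2 levels (1–48 mM), then stopped with EDTA. Products were reverse transcribed from a substrate-complementary primer, PCR-amplified and sequenced (HiSeq 4000). Fitness is a variant's read proportion after selection over that before, normalised to wild type.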", "values": [{"variant": "A111U A120C A145G C150U C169G U176G", "reverse-splicing fitness": 0.00528}, {"variant": "A111U A120C A145G C150U C169G U176C", "reverse-splicing fitness": 0.0168}, {"variant": "A111U A120G A145G C150A C169A", "reverse-splicing fitness": 0.0192}, {"variant": "A111U A120G A145G C150A C169U", "reverse-splicing fitness": 0.028}, {"variant": "A111U A120G A145G C150A C169G", "reverse-splicing fitness": 0.0343}, {"variant": "A111U A120G A145C U176C", "reverse-splicing fitness": 0.0455}, {"variant": "A111U A120G A145C U176G", "reverse-splicing fitness": 0.00566}, {"variant": "A111U A120G A145C U176A", "reverse-splicing fitness": 0.038}, {"variant": "A111U A120G A145U C150A C169A", "reverse-splicing fitness": 0.0164}, {"variant": "A111U A120C C150G C169A U176C", "reverse-splicing fitness": 0.0104}, {"variant": "A111U A120C C150G C169A U176A", "reverse-splicing fitness": 0.00901}, {"variant": "A111U A120C C150G C169A U176G", "reverse-splicing fitness": 0.00573}, {"variant": "A111U A120G A145C C150A U176C", "reverse-splicing fitness": 0.0112}, {"variant": "A111U A120G A145C C150A U176G", "reverse-splicing fitness": 0.00407}, {"variant": "A111U A120G A145C C150A U176A", "reverse-splicing fitness": 0.00785}, {"variant": "A111U A120C A145U C150U C169U", "reverse-splicing fitness": 0.112}, {"variant": "A111U A120C A145U C150U C169G", "reverse-splicing fitness": 0.00826}, {"variant": "A111U A120C A145U C150U C169A", "reverse-splicing fitness": 0.0105}, {"variant": "A111U A120C A145U C169A U176A", "reverse-splicing fitness": 0.00962}, {"variant": "A111U A120C A145U C169A U176C", "reverse-splicing fitness": 0.0106}, {"variant": "A111U A120C A145U C169A U176G", "reverse-splicing fitness": 0.0044}, {"variant": "A111U A120C A145U C169G", "reverse-splicing fitness": 0.00837}, {"variant": "A111U A120C A145U C169U", "reverse-splicing fitness": 0.168}, {"variant": "A111U A120C A145U C169A", "reverse-splicing fitness": 0.0103}, {"variant": "A111U A120C A145U C150U", "reverse-splicing fitness": 0.401}, {"variant": "A111U A120C A145U C150A", "reverse-splicing fitness": 0.061}, {"variant": "A111U A120C A145U C150G", "reverse-splicing fitness": 0.0712}, {"variant": "A111U A120C A145U C150A U176A", "reverse-splicing fitness": 0.034}, {"variant": "A111U A120C A145U C150A U176G", "reverse-splicing fitness": 0.0114}, {"variant": "A111U A120C A145U C150A U176C", "reverse-splicing fitness": 0.0509}, {"variant": "A111U A120G A145C C150A C169G U176A", "reverse-splicing fitness": 0.0261}, {"variant": "A111U A120G A145C C150A C169G U176C", "reverse-splicing fitness": 0.015}, {"variant": "A111U A120G A145C C150A C169G U176G", "reverse-splicing fitness": 0.00529}, {"variant": "A111U A120G A145G U176A", "reverse-splicing fitness": 0.0417}, {"variant": "A111U A120G A145G U176C", "reverse-splicing fitness": 0.0543}, {"variant": "A111U A120G A145G U176G", "reverse-splicing fitness": 0.00558}, {"variant": "A111U A120C C150U", "reverse-splicing fitness": 0.348}, {"variant": "A111U A120C C150A", "reverse-splicing fitness": 0.0636}, {"variant": "A111U A120C C150G", "reverse-splicing fitness": 0.0482}, {"variant": "A111U A120G A145G C169U", "reverse-splicing fitness": 0.158}, {"variant": "A111U A120G A145G C169A", "reverse-splicing fitness": 0.119}, {"variant": "A111U A120G A145G C169G", "reverse-splicing fitness": 0.222}, {"variant": "A111U A120G A145C C150U C169G", "reverse-splicing fitness": 0.0495}, {"variant": "A111U A120G A145C C150U C169U", "reverse-splicing fitness": 0.0397}, {"variant": "A111U A120G A145C C150U C169A", "reverse-splicing fitness": 0.0284}, {"variant": "A111U A120C A145U C150U C169G U176A", "reverse-splicing fitness": 0.0113}, {"variant": "A111U A120C A145U C150U C169G U176G", "reverse-splicing fitness": 0.00445}, {"variant": "A111U A120C A145U C150U C169G U176C", "reverse-splicing fitness": 0.0102}, {"variant": "A111U A120G A145G C150U C169U U176A", "reverse-splicing fitness": 0.0386}, {"variant": "A111U A120G A145G C150U C169U U176G", "reverse-splicing fitness": 0.00563}, {"variant": "A111U A120G A145G C150U C169U U176C", "reverse-splicing fitness": 0.0447}, {"variant": "A111U A120C A145G C150G C169G U176A", "reverse-splicing fitness": 0.0094}, {"variant": "A111U A120C A145G C150G C169G U176C", "reverse-splicing fitness": 0.0106}, {"variant": "A111U A120C A145G C150G C169G U176G", "reverse-splicing fitness": 0.00555}, {"variant": "A111U A120G A145G C169A U176C", "reverse-splicing fitness": 0.0453}, {"variant": "A111U A120G A145G C169A U176A", "reverse-splicing fitness": 0.0312}, {"variant": "A111U A120G A145G C169A U176G", "reverse-splicing fitness": 0.00472}, {"variant": "A111U A120C C150G U176G", "reverse-splicing fitness": 0.00366}, {"variant": "A111U A120C C150G U176A", "reverse-splicing fitness": 0.0104}, {"variant": "A111U A120C C150G U176C", "reverse-splicing fitness": 0.0262}, {"variant": "A111U A120G A145G C150U C169G", "reverse-splicing fitness": 0.166}, {"variant": "A111U A120G A145G C150U C169U", "reverse-splicing fitness": 0.133}, {"variant": "A111U A120G A145G C150U C169A", "reverse-splicing fitness": 0.0845}, {"variant": "A111U A120G A145G C150G U176A", "reverse-splicing fitness": 0.0103}, {"variant": "A111U A120G A145G C150G U176C", "reverse-splicing fitness": 0.0156}, {"variant": "A111U A120G A145G C150G U176G", "reverse-splicing fitness": 0.00598}, {"variant": "A111U A120G A145G C150A U176A", "reverse-splicing fitness": 0.0138}, {"variant": "A111U A120G A145G C150A U176G", "reverse-splicing fitness": 0.00712}, {"variant": "A111U A120G A145G C150A U176C", "reverse-splicing fitness": 0.0274}, {"variant": "A111U A120G A145G C150U U176A", "reverse-splicing fitness": 0.0295}, {"variant": "A111U A120G A145G C150U U176C", "reverse-splicing fitness": 0.0446}, {"variant": "A111U A120G A145G C150U U176G", "reverse-splicing fitness": 0.00725}, {"variant": "A111U A120C U176A", "reverse-splicing fitness": 0.277}, {"variant": "A111U A120C U176C", "reverse-splicing fitness": 0.28}, {"variant": "A111U A120C U176G", "reverse-splicing fitness": 0.0439}, {"variant": "A111U A120G A145C C169G U176C", "reverse-splicing fitness": 0.0387}, {"variant": "A111U A120G A145C C169G U176G", "reverse-splicing fitness": 0.00442}, {"variant": "A111U A120G A145C C169G U176A", "reverse-splicing fitness": 0.0371}, {"variant": "A111U A120G A145G C150A C169U U176A", "reverse-splicing fitness": 0.0247}, {"variant": "A111U A120G A145G C150A C169U U176G", "reverse-splicing fitness": 0.00606}, {"variant": "A111U A120G A145G C150A C169U U176C", "reverse-splicing fitness": 0.024}, {"variant": "A111U A120G", "reverse-splicing fitness": 0.174}, {"variant": "A111U A120C C150U C169A U176A", "reverse-splicing fitness": 0.018}, {"variant": "A111U A120C C150U C169A U176G", "reverse-splicing fitness": 0.00509}]}]}
